{"source": "the nanobody polyreactivity screen of Harvey et al. (2022)"}
{"assay": "yeast display, Sf9 membrane polyspecificity reagent, FACS + sequencing; frameworks hold sequencing errors", "summary_of_the_method": "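In a synthetic yeast display library (Saccharomyces cerevisiae BJ5465), nanobody expression was induced with galactose for 36–48 hours. FACS gates were set low and high (top ~1%) using anti-HA fluorescence for expression and streptavidin fluorescence for binding of the Sf9 membrane reagent. Each polyreactivity label is drawn from the gate of origin.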"}
{"sequence": "QVQLVESGGGLVQAGGSLRLSCAASGRTYTYYAMGWYRQAPGKERELVAAISDSGGRTYYADSVKGRFTISRDNAKNTVYLQMNSLKPEDTAVYYCAATTYPYYRFDYWGQGTQVTVSS", "polyreactivity (PSR sort gate)": "high polyreactivity"}
{"sequence": "QVQLVESGGGLVQAGGSLRLSCAASGRTYVKNAMGWYRQAPGKERELVAAITSGGSTYYADSVKGRFTISRDNAKNTVYLQMNSLKPEDTAVYYCAAAWSSRYVSRYYYWGQGTQVTVSS", "polyreactivity (PSR sort gate)": "high polyreactivity"}
{"sequence": "QVQLVESGGGLVQAGGSLRLSCAASGRTYYPNAIGWYRQAPGKEMDLVADITYSGASTYYADSVKGRFTISRDNAKNTVYLQMNSLKPEDTAVYYCAVPGATSYFAYDSWGQGTQVTVSS", "polyreactivity (PSR sort gate)": "low polyreactivity"}
{"sequence": "QVQLVESGGGLVQAGGSLRLSCAASGRVLPPNAIGWYRQAPGKERELVAAINWSSGRTYYADSVKGRFTISRDYAKNSVYLQMNSLKPEDTAVYDCAKAYRYAYGYDYWGQGTQVTVSS", "polyreactivity (PSR sort gate)": "high polyreactivity"}
{"sequence": "QVQLVESGGGLVQAGGSLRLSCAASGRVRYAIGWYRQAPGKESELVASITRRAGNTYYADSVKGRFTISRDNAKNTVYLQMNSLKPEDTAVYYCAAADVGAYRGNYWGQGTLVTVSS", "polyreactivity (PSR sort gate)": "high polyreactivity"}
{"sequence": "QVQLVESGGGLVQAGGSLRLSCAASGSARYAMGWYRQATGNERELVAAISRRGGSTYYADSVKGRFTISRDNATKTVYLHMNSLKPEDTAVYYCAADGRISYDYWGQGTQVTVSS", "polyreactivity (PSR sort gate)": "low polyreactivity"}
{"sequence": "QVQLVESGGGLVQAGGSLRLSCAASGSARYDMGWYRQPNGKERELVAAISRRGGSTFYADSVKGRFTISRDNAKNTVYLQMNSLKPEDTAVYYCAADGRISYDYWGQGTQVTVSS", "polyreactivity (PSR sort gate)": "low polyreactivity"}
{"sequence": "QVQLVESGGGLVQAGGSLRLSCAASGSASRGNAMGWYRQAPGKERELVATISQSGGNTFYADSVKGRFTISRDNAKNSVYLQMNSLKPEDTAVYYCAAGRYWFGWYDYWGQGTQVTVSS", "polyreactivity (PSR sort gate)": "high polyreactivity"}
{"sequence": "QVQLVESGGGLVQAGGSLRLSCAASGSIAMGWYRQAPGKERELVATISSSGGSTYYADSVKGRFTISRDNAKNTVYLQMNSLKPEDTAVYYCNTQAVYGGGEGGYDYWGQGTQVTVSS", "polyreactivity (PSR sort gate)": "low polyreactivity"}
{"sequence": "QVQLVESGGGLVQAGGSLRLSCAASGSICAFYGMRWYRQAPGKERELVAAITRSGGSTYYADSVKGRFTISRDNAKNTVYLQMNSLKAEDTAVSYCAKRPHHGSTKYNYWGQGTQVTVSS", "polyreactivity (PSR sort gate)": "low polyreactivity"}
{"sequence": "QVQLVESGGGLVQAGGSLRLSCAASGSICYDDMGWYSQAPGKERELVAAITWSGGSTYYADSVKGRFTISRDNAKNTVYLQMNSLKPEDTAVYYCAAIFGYGSTWWRWGKDDYWGQGTQVTVSS", "polyreactivity (PSR sort gate)": "high polyreactivity"}
{"sequence": "QVQLVESGGGLVQAGGSLRLSCAASGSIDGYAMGWYRQAPGKERELVAAISKGGGNTYYADSVKGRFTISRDNAKNTVYLQMNSLKPEDTAVYYCAARRQIIWGQGTQVTVSS", "polyreactivity (PSR sort gate)": "high polyreactivity"}
{"sequence": "QVQLVESGGGLVQAGGSLRLSCAASGSIFAANAMGWYRQAPGKERELVAAITRGGRTYYADSVKGRFTISRDNAKNTVYLQMNSLKPEDTAVYYCAAYVFSKREYYRYDYWGQGTQVTVSS", "polyreactivity (PSR sort gate)": "high polyreactivity"}
{"sequence": "QVQLVESGGGLVQAGGSLRLSCAASGSIFAAYAKGWYIQAPGKERELVAAISDRGGSTYYADSVKGRFTISRDNSKITVYLQMNSLKPEDTAVYYCATSVFDVRGGPFYYWGQGTQVNVSS", "polyreactivity (PSR sort gate)": "high polyreactivity"}
{"sequence": "QVQLVESGGGLVQAGGSLRLSCAASGSIFAAYVMGWYRQAPGKERELVAAISYSGGGTYYADSVKGRFTISRDNAKNTVYLQMNSLKPEDTAVYYCAADFGVFKSARYYYWGQGTQVTVSS", "polyreactivity (PSR sort gate)": "low polyreactivity"}
{"sequence": "QVQLVESGGGLVQAGGSLRLSCAASGSIFADYTMGWYRQAPGKERELVAAITSGGSTYYADSVKGRFTISRDNAKNTVYLQMNSLKPEDTAVYYCAAYYGGRGYWGQGTQVTVSS", "polyreactivity (PSR sort gate)": "low polyreactivity"}
{"sequence": "QVQLVESGGGLVQAGGSLRLSCAASGSIFAENAMGCYRQAPGKERELVAAITRSGGSTYYADSVKGRFTISRDNAKNTVYLQMNSLKPEDTAVYYCAAREIASDDWGPDDYWGQGTQVTVSS", "polyreactivity (PSR sort gate)": "low polyreactivity"}
{"sequence": "QVQLVESGGGLVQAGGSLRLSCAASGSIFAEYAMGWYRQAPGKERELVAAINGGGSTYYADSVKGRFTISRDNAKNTVYLEMNSLKPEDTAVYYCAAEKYTSWYSFWGYLYDYWGQGTQVTVSS", "polyreactivity (PSR sort gate)": "high polyreactivity"}
{"sequence": "QVQLVESGGGLVQAGGSLRLSCAASGSIFAFYAMGLYRQAPGKERELVAAITASGGRTYYADSVKGRFTISRDIAKNTVYLQMNSLKPEDTAVYYCAAERQTIYIGLYGYPGWSQYNYWGQGTQVTVSS", "polyreactivity (PSR sort gate)": "low polyreactivity"}
{"sequence": "QVQLVESGGGLVQAGGSLRLSCAASGSIFAFYAMGRYRQAPGKERELVAAISYNGGSTYYADSVKGRFTISRDNAKNTVYLQMNSLKAEDTAVYYCAAYHFRAPSEYDYWGQGTQVTVSS", "polyreactivity (PSR sort gate)": "low polyreactivity"}
{"sequence": "QVQLVESGGGLVQAGGSLRLSCAASGSIFAFYVMGWYRQAPGKERELVAAINRGGTNTYYADSVKGRFTISRDNGKNTVYLQMNSLKPEDTAVYYCAAQRYGGMDYWGQGTQVTVSS", "polyreactivity (PSR sort gate)": "high polyreactivity"}
{"sequence": "QVQLVESGGGLVQAGGSLRLSCAASGSIFAGNAMGWYCHAPGKERELVAAIRYGGTSTYYADSVKGRFTISRDNAKNTVYLQMNSLIPEDTAVYYCAATDWWGYYYWGQGTQVTVSS", "polyreactivity (PSR sort gate)": "high polyreactivity"}
{"sequence": "QVQLVESGGGLVQAGGSLRLSCAASGSIFAGNAMGWYRQAPGKERELVAAISRRGGSTYYADSVKGRFTISRDNAKNTVYLQMNSLKPEDTAVYYCNALLRYAYHAAYGYWGQGPQVTVSS", "polyreactivity (PSR sort gate)": "high polyreactivity"}
{"sequence": "QVQLVESGGGLVQAGGSLRLSCAASGSIFAGYAMGWYRKAPGKERELVAVISSTGSTYYADSVKGRFTISRDNAKNTVYLQMNSLKTEDTAVYYCNAYRYWSPGYDYWGQGTQVTVSS", "polyreactivity (PSR sort gate)": "low polyreactivity"}
{"sequence": "QVQLVESGGGLVQAGGSLRLSCAASGSIFAGYAMGWYRPAPGKERELVAAINWTGDSTYYADSVKGRFTISRDNAKNTVYLQMNSLKPEDTAVYYCAAIRRQKGLWDYYYWGQGTQVTVSS", "polyreactivity (PSR sort gate)": "low polyreactivity"}
{"sequence": "QVQLVESGGGLVQAGGSLRLSCAASGSIFAGYAMGWYRQAPGKERELVAAISSSGSRTYYADSVKGRFTISRDNAKNTVYLHMNSLKPEDTAVYYCATQSWVRYGQPEFDYWGQGTQVTVSS", "polyreactivity (PSR sort gate)": "high polyreactivity"}
{"sequence": "QVQLVESGGGLVQAGGSLRLSCAASGSIFAGYAMGWYRQAPGKERELVAAITSSGGSTYYADSVKGRFTISRDNAKNTVYLQMTSLKPEDTAVYYCAKDKLILYRVGSDYWGQGTQVTVSS", "polyreactivity (PSR sort gate)": "low polyreactivity"}
{"sequence": "QVQLVESGGGLVQAGGSLRLSCAASGSIFAHYAMGWYRQAPGKERELVAAISWGGGRTYYADSVKGRFTISRDNAKNTVYLQMNSLKPEDTAVYYCAARAANKSNYWGQGTQVTVSS", "polyreactivity (PSR sort gate)": "low polyreactivity"}
{"sequence": "QVQLVESGGGLVQAGGSLRLSCAASGSIFAINAMGWYRQAPGKERELVAAIRSGGRTYSADSEKGRFTISRDNAKITVYLQMNSLKPEDTAVYYCTDGGKWIGSDYWGQGTQVTVSS", "polyreactivity (PSR sort gate)": "high polyreactivity"}
{"sequence": "QVQLVESGGGLVQAGGSLRLSCAASGSIFAINAMGWYRQAPGKERELVAGITSGGSTYYADSVKGRFTISRDNAKNTVYLQMNSLKPEDTAVYYCAVQVVRSWLVTYYYWGQGTQVTVSS", "polyreactivity (PSR sort gate)": "high polyreactivity"}
{"sequence": "QVQLVESGGGLVQAGGSLRLSCAASGSIFAIYTMGWYRQAPGKVRELVAGITKSGGNTYYADSVKGRFTISRDNAKNTVYLQMNSLKPEDTSVYYCAASQYEYYDGWYRYDYWGQGTQVTVSS", "polyreactivity (PSR sort gate)": "high polyreactivity"}
{"sequence": "QVQLVESGGGLVQAGGSLRLSCAASGSIFAKYAMGWYRQAPGKERELVAAITSSGDSTNYADSVKGRFTISRDNAKNTVYLQMNSLKPEDTAVYYCAADDQYGYVYYAFWGYDYWGQGTQVTVSS", "polyreactivity (PSR sort gate)": "low polyreactivity"}
{"sequence": "QVQLVESGGGLVQAGGSLRLSCAASGSIFAKYPMGWYRQAPGKERELVAAISSGGSTYYADSVKGRFTISRDNAKNTVYLQMNSLKPEDTAVYYCNKPYGKETRYTFNVWYEYNYWGQGTQVTVSS", "polyreactivity (PSR sort gate)": "low polyreactivity"}
{"sequence": "QVQLVESGGGLVQAGGSLRLSCAASGSIFANNAMGWYRQAPGKERELVAAIDWSAASTYYADSVKGRFTISRDNAKNTVYLQMNSLKPEDTAVYYCNARALGGGHIGFNHYVYGFGYWGQGTQVTVSS", "polyreactivity (PSR sort gate)": "low polyreactivity"}
{"sequence": "QVQLVESGGGLVQAGGSLRLSCAASGSIFARNAMGWYRQAPGTERELVASITWSGASTYYADSVKGRFTMSRDNATNTVSLQLNSLKPDDTAVYYCAATAQKLSLDYSSYEYWGQGTQVTVSS", "polyreactivity (PSR sort gate)": "low polyreactivity"}
{"sequence": "QVQLVESGGGLVQAGGSLRLSCAASGSIFARYAIGWYRQAPGKERELVAAISSDGSTYYADSVKGRFTISRDNAKNTVYLQMNSLKPEDTAVYYCAARAFYYAGDWYGYWGQGTQVTVSS", "polyreactivity (PSR sort gate)": "high polyreactivity"}
{"sequence": "QVQLVESGGGLVQAGGSLRLSCAASGSIFARYTMGWYRQAPGKERELVASITWRTGSTYYADSVKGRFTISRDNAKNTVYLQMNSLKPEDTAVYYCNKAYTITQYGWIPLGYWGQGTQVTVSS", "polyreactivity (PSR sort gate)": "high polyreactivity"}
{"sequence": "QVQLVESGGGLVQAGGSLRLSCAASGSIFASNALGWYRQAPGKERELVAAIDTSGGSTYYADSVKGRFTISRDNAKNTVYLQMNSLKPEDTAVYYCNTDWRDEYYPRYRASKFDYWGQGTQVTVSS", "polyreactivity (PSR sort gate)": "low polyreactivity"}
{"sequence": "QVQLVESGGGLVQAGGSLRLSCAASGSIFASNAMGWYRQAPGKDTELVAAITYSGGSTYYADSVKGRFTISRDNAKKTVDLQMNSLKPEDTAVYYCAADVSVPQRYDYWGQGTQVTVSS", "polyreactivity (PSR sort gate)": "low polyreactivity"}
{"sequence": "QVQLVESGGGLVQAGGSLRLSCAASGSIFASNAMGWYRQAPGKEREFVAAITWRTDRTHYADSVKGRFTISRDNAKNTVYLQMNSLKPEDTAVYYCAADTWFYRFYYWGQGTQVTVSS", "polyreactivity (PSR sort gate)": "high polyreactivity"}
{"sequence": "QVQLVESGGGLVQAGGSLRLSCAASGSIFASNAMGWYRQAPGKERELVAAINSGDSTNYADSVKGRFTISRDNAKNTVYLQMNSLKPEDTAVYFCARGLEERYDYWGQGTQVTVSS", "polyreactivity (PSR sort gate)": "low polyreactivity"}
{"sequence": "QVQLVESGGGLVQAGGSLRLSCAASGSIFASYAMGWYRQAPGKERELVAAIRSSGGRTYYADSVKGRFTISRDNAKYTVYLQMYSLKPEDTAVYYCNDRRPGYRPYGYDYWGQGTQVTVSS", "polyreactivity (PSR sort gate)": "high polyreactivity"}
{"sequence": "QVQLVESGGGLVQAGGSLRLSCAASGSIFASYAMGWYRQAPGKERELVAAITTSGGRTYYADSVKGRFTISRDNAKNTVYLQMNSLKPEDTAVYYCARRPRGGRYAYYSWGQGTQVTVSS", "polyreactivity (PSR sort gate)": "high polyreactivity"}
